The source of these data is patent publication US20130280758A1 (Regeneron, published 2013).

The target of this assay is T1, rat Tie-2 (rTie-2), as used in BIAcore analysis (rat, UniProt A0ABK0L6J5 19-740).
T1 construct: It may have been rTie-2-Fc
Briefly: BIAcore. (In SPR one partner is held on a chip, and binding of the other changes the refractive index at the surface.)

B1: FD1-Fc-FD1 (Fc fusion, human)
chain (part 1 of 2): FRDCADVYQAGFNKSGIYTIYINNMPEPKKVFCNMDVNGGGWTVIQHREDGSLDFQRGWKEYKMGFGNPSGEYWLGNEFIFAITSQRQYMLRIELMDWEGNRAYSQYDRFHIGNEKQNYRLYLKGHTGTAGKQSSLILHGADFSTKDADNDNCMCKCALMLTGGWWFDACGPSNLNGMFYTAGQNHGKLNGIKWHYFKGPSYSLRSTTMMIRPLDF
chain (part 2 of 2): FRDCADVYQAGFNKSGIYTIYINNMPEPKKVFCNMDVNGGGWTVIQHREDGSLDFQRGWKEYKMGFGNPSGEYWLGNEFIFAITSQRQYMLRIELMDWEGNRAYSQYDRFHIGNEKQNYRLYLKGHTGTAGKQSSLILHGADFSTKDADNDNCMCKCALMLTGGWWFDACGPSNLNGMFYTAGQNHGKLNGIKWHYFKGPSYSLRSTTMMIRPLDF
notes: domain: fibrinogen domain of Ang1; also called BA1; not shown: Fc
Broadly, the Kd is a measure of binding affinity in units of concentration. In the case of B1, the affinity, expressed as Kd, was 2 nM.
